Data from article PMC8102920.

System: eIF3 complex (purified, 13 subunits a-m) (rabbit (reticulocyte lysate))
Experiment: EMSA
Conditions: EMSA: 25 mM Tris-HCl pH 7.5, 5 mM Mg(OAc)2, 70 mM KCl, 0.1 mM CaCl2, 0.1 mg/ml BSA, 2 mM TCEP, 30 min at 25 C, 0.7% agarose in TBE, 75 mM KCl, 4 C; for binding signal (% RNA shifted at high eIF3): high eIF3 (4-8 uM lanes quantified)

Row | Substance | binding signal (% RNA shifted at high eIF3) | Kd [µM]
1 | H4 1-137 (TWJ) | 28 | –
2 | H4 137-241 (4E-SE) | 14 | –
3 | H4 241-375 (eIF3-BS) | 39 | –
4 | H4 FL mRNA (1-375) | – | 4
